In the Human Domainome abundance scans (Beltran et al. 2025):

B1: 1-phosphatidylinositol 4,5-bisphosphate phosphodiesterase gamma-2, residues 772 to 827; numbered along this chain, P16885 (parent)
chain: RTVKALYDYKAKRSDELSFCRGALIHNVSKEPGGWWKGDYGTRIQQYFPSNYVEDI

Variants of: B1
Experiment: abundance fitness (aPCA) (normalised: wild type 0, dead -1); higher = more abundant; growth selection in yeast, the domain comes from the species named
Details: Homo sapiens

Abundance fitness: each site, then its substitutions
Y9: L -0.923 | T -0.931 | G -0.949 | V -1.07 | P -0.734 | S -0.939 | H -0.164 | R -0.685 | C 0.089 | E -0.868 | K -0.816 | W -0.223
S14: C -0.124 | A 0.038
V3: C -0.267 | I -0.689 | M -0.017
A11: N -0.378 | V -0.972 | Q -0.176 | S -0.39 | C -0.819 | R -0.683 | L -1.05 | W -0.989 | E -0.775 | P -0.446 | T -0.461
K12: T -0.097 | S -0.263 | W -0.369 | N -0.181 | C -0.705 | P -0.93 | M -0.004 | V -0.217 | D -0.239 | F -0.63 | A -0.16 | H 0.113 | E -0.206 | G -0.182 | Y -0.48 | L -0.177 | Q -0.077 | I -0.405 | R -0.092
K4: M -0.127 | W -0.375 | Y 0.019 | S -0.514 | A -0.259 | V 0.055 | T -0.288 | E -0.216 | R -0.205 | I 0.049 | F -0.393 | C -0.068 | Q -0.148 | G -0.782 | D -0.809
Y7: D -0.282 | E -0.117 | Q 0.2 | K 0.158 | H -0.015 | G -0.35 | T -0.267 | R 0.169 | F 0.126 | C -0.118 | I -0.165 | L -0.077 | M -0.059 | V -0.2 | N -0.375 | S -0.109 | A 0.01
A5: V -0.965 | M -0.942 | W -0.955 | K -0.998 | H -0.976 | P -0.95 | F -0.895 | L -0.999 | E -0.908 | S -0.503 | I -0.903 | Q -0.865 | N -0.964 | G -0.868 | R -0.896
K10: C -0.034 | S -0.008 | L -0.399 | F -0.333 | D 0.052 | V 0.103 | I -0.336 | R -0.033 | G -0.373 | W -0.319 | A -0.319 | P -0.502 | Y -0.106 | T -0.025 | M -0.356 | Q -0.002 | N -0.042 | E -0.104
D8: V -0.982 | C -0.105 | N -0.059 | S -0.059 | G -0.083 | Y -0.576 | A 0.068 | W -0.634 | T 0.078 | F -0.382 | E -0.17 | R -0.452 | M -0.579
L6: A -0.195 | P -0.691 | R -0.177 | D -0.577 | C -0.406 | W -0.935 | G -0.721 | V -0.356 | T -0.161 | E -0.631 | I 0.09 | H -0.834 | F -0.456 | N -0.257 | K 0.01 | Q -0.485
T2: I -0.111 | H -0.603 | Q -0.094 | K -0.207 | M -0.241 | Y -0.177 | S -0.089 | L -0.315 | W -0.883 | V 0.037 | N -0.587
R13: H -0.26 | C -0.212 | W -0.846 | E -0.306 | F -0.007 | T -0.368 | S -0.056 | G -0.316 | V -0.47 | K -0.267 | D -0.281 | L -0.645 | Q -0.301 | M -0.021 | Y -0.1
